The results in this text go back to paper PMC9068813, “Enhancer RNAs stimulate Pol II pause release by harnessing multivalent interactions to NELF”.

What all share (conditions): protein: recombinant; tags: His-tag (Ni-NTA purified); copies: 1;1;1;1
Data set [1] addresses T1, NELF complex WT (UniProt Q9H3P2;Q8WX92;Q8IXH7;P18615 1-528;1-628;1-590;1-380). Description: EMSA (NELF release from PEC); up to 2.4 µM; 20 mM Na-HEPES pH 7.4, 100 mM NaCl, 25 mM KCl, 3 mM MgCl2, 2 mM DTT; assembly 30 °C, eRNA incubation 15-20 min at room temperature; 3.5% native PAGE 0.5x TBE at 4 °C; PEC about 0.1 µM NELF 0.15 µM. In general terms: Mobility shift assays separate free from complexed probe on a gel.

Data set [2] addresses T1, NELF complex WT. Put plainly: EMSA (NELF release from PEC); apparent Kd; NELF in PEC on N1; 20 mM Na-HEPES pH 7.4, 100 mM NaCl, 25 mM KCl, 3 mM MgCl2, 2 mM DTT; assembly 30 °C, eRNA incubation 15-20 min at room temperature; 3.5% native PAGE 0.5x TBE at 4 °C; PEC about 0.1 µM NELF 0.15 µM.
Data set [3] concerns the target T1, NELF complex WT. Put plainly: size-exclusion chromatography; UV crosslinking-MS (365 nm); isolated NELF; 20 mM Na-HEPES pH 7.4, 100 mM NaCl, 25 mM KCl, 3 mM MgCl2, 2 mM DTT; assembly 30 °C, eRNA incubation 15-20 min at room temperature; 3.5% native PAGE 0.5x TBE at 4 °C; PEC about 0.1 µM NELF 0.15 µM.
Data set [4] deals with T1, NELF complex WT. Put plainly: EMSA (NELF release from PEC); 18-fold molar excess; 20 mM Na-HEPES pH 7.4, 100 mM NaCl, 25 mM KCl, 3 mM MgCl2, 2 mM DTT; assembly 30 °C, eRNA incubation 15-20 min at room temperature; 3.5% native PAGE 0.5x TBE at 4 °C; PEC about 0.1 µM NELF 0.15 µM.
Data set [5] concerns the target T1, NELF complex WT. Put plainly: EMSA (NELF release from PEC); 20 mM Na-HEPES pH 7.4, 100 mM NaCl, 25 mM KCl, 3 mM MgCl2, 2 mM DTT; assembly 30 °C, eRNA incubation 15-20 min at room temperature; 3.5% native PAGE 0.5x TBE at 4 °C; PEC about 0.1 µM NELF 0.15 µM.
Data set [6] deals with T1, NELF complex WT. Description: EMSA (NELF release from PEC); release at about equimolar eRNA; 20 mM Na-HEPES pH 7.4, 100 mM NaCl, 25 mM KCl, 3 mM MgCl2, 2 mM DTT; assembly 30 °C, eRNA incubation 15-20 min at room temperature; 3.5% native PAGE 0.5x TBE at 4 °C; PEC about 0.1 µM NELF 0.15 µM.
The target in data set [7] is T1, NELF complex WT. Description: EMSA (NELF release from PEC); DSIF also released at high RNA; 20 mM Na-HEPES pH 7.4, 100 mM NaCl, 25 mM KCl, 3 mM MgCl2, 2 mM DTT; assembly 30 °C, eRNA incubation 15-20 min at room temperature; 3.5% native PAGE 0.5x TBE at 4 °C; PEC about 0.1 µM NELF 0.15 µM.
Data set [8] deals with T1, NELF complex WT. Description: EMSA (NELF release from PEC); no DSIF release at high RNA; 20 mM Na-HEPES pH 7.4, 100 mM NaCl, 25 mM KCl, 3 mM MgCl2, 2 mM DTT; assembly 30 °C, eRNA incubation 15-20 min at room temperature; 3.5% native PAGE 0.5x TBE at 4 °C; PEC about 0.1 µM NELF 0.15 µM.

T1 sequence (Q9H3P2 whole entry, chain 1 of 4): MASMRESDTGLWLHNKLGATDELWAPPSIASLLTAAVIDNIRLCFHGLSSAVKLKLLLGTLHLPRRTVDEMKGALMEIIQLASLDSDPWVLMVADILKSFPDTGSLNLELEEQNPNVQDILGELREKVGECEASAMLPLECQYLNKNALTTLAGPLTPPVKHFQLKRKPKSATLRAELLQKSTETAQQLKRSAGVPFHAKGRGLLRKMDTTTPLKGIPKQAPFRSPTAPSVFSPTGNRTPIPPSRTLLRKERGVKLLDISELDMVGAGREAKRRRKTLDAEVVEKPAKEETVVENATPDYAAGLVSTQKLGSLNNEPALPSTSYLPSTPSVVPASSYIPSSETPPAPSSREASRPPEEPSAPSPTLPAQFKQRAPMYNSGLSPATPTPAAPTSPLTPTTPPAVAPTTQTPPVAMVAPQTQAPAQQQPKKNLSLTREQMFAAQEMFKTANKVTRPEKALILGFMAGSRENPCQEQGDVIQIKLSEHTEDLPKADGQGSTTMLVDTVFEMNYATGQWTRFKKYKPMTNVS
T1 sequence (Q8WX92 other isoform, or with tags, fused parts or gaps, chain 2 of 4): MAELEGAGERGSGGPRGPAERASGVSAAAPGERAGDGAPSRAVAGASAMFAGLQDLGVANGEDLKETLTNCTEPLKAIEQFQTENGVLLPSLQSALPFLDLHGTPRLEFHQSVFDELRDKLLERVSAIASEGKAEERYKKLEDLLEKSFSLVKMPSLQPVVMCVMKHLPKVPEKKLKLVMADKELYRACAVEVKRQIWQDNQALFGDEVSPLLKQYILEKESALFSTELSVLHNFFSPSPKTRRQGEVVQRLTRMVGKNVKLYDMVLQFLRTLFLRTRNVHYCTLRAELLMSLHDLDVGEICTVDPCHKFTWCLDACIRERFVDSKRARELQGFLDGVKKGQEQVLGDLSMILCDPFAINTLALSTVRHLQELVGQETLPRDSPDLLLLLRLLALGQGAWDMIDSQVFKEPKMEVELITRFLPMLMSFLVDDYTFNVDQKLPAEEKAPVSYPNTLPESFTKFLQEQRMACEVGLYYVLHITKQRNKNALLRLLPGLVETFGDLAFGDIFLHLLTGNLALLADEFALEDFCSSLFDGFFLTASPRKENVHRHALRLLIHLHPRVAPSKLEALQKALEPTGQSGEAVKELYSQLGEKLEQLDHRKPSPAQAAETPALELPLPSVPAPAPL
T1 sequence (Q8IXH7 whole entry, chain 3 of 4): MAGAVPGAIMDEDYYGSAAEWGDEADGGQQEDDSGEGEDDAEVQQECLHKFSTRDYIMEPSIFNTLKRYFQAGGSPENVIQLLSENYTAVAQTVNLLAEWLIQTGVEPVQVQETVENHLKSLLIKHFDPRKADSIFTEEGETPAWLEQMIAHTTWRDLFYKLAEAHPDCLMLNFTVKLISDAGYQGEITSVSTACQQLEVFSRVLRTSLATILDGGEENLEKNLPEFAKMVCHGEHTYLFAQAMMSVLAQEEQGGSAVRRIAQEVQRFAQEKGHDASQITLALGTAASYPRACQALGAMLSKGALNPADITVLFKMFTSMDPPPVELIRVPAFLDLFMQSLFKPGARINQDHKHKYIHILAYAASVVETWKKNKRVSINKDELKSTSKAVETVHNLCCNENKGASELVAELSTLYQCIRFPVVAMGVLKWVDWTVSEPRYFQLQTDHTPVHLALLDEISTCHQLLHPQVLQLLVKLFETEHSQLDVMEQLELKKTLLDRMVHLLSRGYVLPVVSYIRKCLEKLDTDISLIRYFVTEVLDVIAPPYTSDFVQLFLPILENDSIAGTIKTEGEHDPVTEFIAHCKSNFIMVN
T1 sequence (P18615 whole entry, chain 4 of 4): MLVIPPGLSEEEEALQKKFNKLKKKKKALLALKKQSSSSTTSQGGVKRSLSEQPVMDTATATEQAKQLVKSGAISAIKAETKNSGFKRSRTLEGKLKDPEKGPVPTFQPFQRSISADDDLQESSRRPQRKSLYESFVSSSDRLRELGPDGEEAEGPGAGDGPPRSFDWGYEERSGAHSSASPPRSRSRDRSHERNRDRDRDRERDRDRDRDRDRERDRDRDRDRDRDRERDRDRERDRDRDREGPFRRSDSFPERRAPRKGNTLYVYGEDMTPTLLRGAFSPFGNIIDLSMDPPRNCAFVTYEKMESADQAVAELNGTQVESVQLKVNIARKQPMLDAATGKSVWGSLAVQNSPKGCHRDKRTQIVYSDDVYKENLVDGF

B1: poly(U) (ssRNA)
RNA: UUUUUUUUUUUUUUUUUUUUUUUUUUUUUUUUUUUUUUUUUUUUUUUUUUUUUUUUUUUUUUUUUUUUUUUUUUUUUUUU
As to B1, in the data set with NELF complex WT [1], the binding result is “no binding”.

B2: Nr4a1-(a) eRNA 1-100 (structured_RNA)
RNA: GCGGUGAGAGUGAUUUUGUAACUCUAAAGUUACAGAGGGUUUUGUUGUGUUUUUAAUCAAGAGCCCUGGUUUUGAUUUGUGGGUAAUCUUUCUUUAAACC
Regarding B2, in the data set with NELF complex WT [2], the Kd is 0.14 µM.

B3: Nr4a1-(a) eRNA 1-100, 4SU (structured_RNA)
RNA: GCGGUGAGAGUGAUUUUGUAACUCUAAAGUUACAGAGGGUUUUGUUGUGUUUUUAAUCAAGAGCCCUGGUUUUGAUUUGUGGGUAAUCUUUCUUUAAACC
modifications: 4-thiouridine, 40-80% of U
Regarding B3, the binding result in the data set with NELF complex WT [3] is “binds”.

B4: poly(CA) (ssRNA)
RNA: CACACACACACACACACACACACACACACACACACACACACACACACACACACACACACACACACACACACACACACACACACACACACACACACA
As for B4, the binding result with NELF complex WT [1] was “no binding”.

B5: Nr4a1-(b) eRNA 1-50 (structured_RNA)
RNA: AGUAGGGGCAUGGCUCGCCCGAGGCUCGGUGCUGCCCCGCCGCCCGCCGC
On to B5, for which the binding result with NELF complex WT [4] is given as “no binding”.

B6: Nr4a1-(b) eRNA 1-100 (structured_RNA)
RNA: AGUAGGGGCAUGGCUCGCCCGAGGCUCGGUGCUGCCCCGCCGCCCGCCGCGUUCCUUCCGGCUUGGUGUUCCGGUGGCGGGACCAGGGAAGGGAAGCUCG
On to B6, for which the Kd with NELF complex WT [2] came out at 2.02 µM.

B7: Arc eRNA 96-200 (structured_RNA)
RNA: CCAGCUGGCAGUAGCCCCCCCAACCCCACCCCUGAUGGAGAACUGCUCCUGUAUGAUCCAGCCCAGUGGGCGCACAGGGAGUUGGUAGGUGGGCACUCAGACUGG
As for B7, in the data set with NELF complex WT [5], the binding result is listed as “binds”.

B8: poly(CU) (ssRNA)
RNA: CUCUCUCUCUCUCUCUCUCUCUCUCUCUCUCUCUCUCUCUCUCUCUCUCUCUCUCUCUCUCUCUCUCUCUCUCUCUCUCU
In the case of B8, the binding result with NELF complex WT [1] was “no binding”.

B9: Nr4a1-(b) eRNA 1-200 (structured_RNA)
RNA: AGUAGGGGCAUGGCUCGCCCGAGGCUCGGUGCUGCCCCGCCGCCCGCCGCGUUCCUUCCGGCUUGGUGUUCCGGUGGCGGGACCAGGGAAGGGAAGCUCGGGCCAAAUCCGGUCUCGGGCGAGGUGACAGAAAUUUGGAAUCUGACACCGGAGGAUGGCUGAGCUCCGGCUCCUCUGGGAGUGCAAUUACGGACUUCGCA
Regarding B9, in the data set with NELF complex WT [6], the binding result is recorded as “binds”.

B10: poly(GA)48, 96 nt (ssRNA)
RNA: GAGAGAGAGAGAGAGAGAGAGAGAGAGAGAGAGAGAGAGAGAGAGAGAGAGAGAGAGAGAGAGAGAGAGAGAGAGAGAGAGAGAGAGAGAGAGAGA
As to B10, the binding result in the data set with NELF complex WT [7] was “binds”.

B11: poly(G2A6), 96 nt (ssRNA)
RNA: GGAAAAAAGGAAAAAAGGAAAAAAGGAAAAAAGGAAAAAAGGAAAAAAGGAAAAAAGGAAAAAAGGAAAAAAGGAAAAAAGGAAAAAAGGAAAAAA
Take B11: the binding result in the data set with NELF complex WT [8] is listed as “binds”.

B12: poly(UA) (ssRNA)
RNA: UAUAUAUAUAUAUAUAUAUAUAUAUAUAUAUAUAUAUAUAUAUAUAUAUAUAUAUAUAUAUAUAUAUAUAUAUAUAUAUAUAUAUAUAUAUAUAUA
Turning to B12, the binding result with NELF complex WT [1] is on record as “no binding”.

B13: Nr4a1-(a) eRNA 1-200 (structured_RNA)
RNA: GCGGUGAGAGUGAUUUUGUAACUCUAAAGUUACAGAGGGUUUUGUUGUGUUUUUAAUCAAGAGCCCUGGUUUUGAUUUGUGGGUAAUCUUUCUUUAAACCUCGCCCAUUUCCGGCCUGGUGACCUGGGCCACUUUCUCAUGUUGACCCAGAUGAUCCUCAGUAGCAAGAACAAAAGGACAACAGAUGUGGAAACACUCAA
Take B13: the binding result with NELF complex WT [6] is reported as “binds”.

B14: Nr4a1-(a) eRNA 1-200, 4SU (structured_RNA)
RNA: GCGGUGAGAGUGAUUUUGUAACUCUAAAGUUACAGAGGGUUUUGUUGUGUUUUUAAUCAAGAGCCCUGGUUUUGAUUUGUGGGUAAUCUUUCUUUAAACCUCGCCCAUUUCCGGCCUGGUGACCUGGGCCACUUUCUCAUGUUGACCCAGAUGAUCCUCAGUAGCAAGAACAAAAGGACAACAGAUGUGGAAACACUCAA
modifications: 4-thiouridine, <60% of U
Take B14: the binding result with NELF complex WT [3] is on record as “binds”.

B15: Arc eRNA 1-50 (structured_RNA)
RNA: AAAACACAGCCGCCAGGGUGGGGGUGGCAGCCUUGAACGCCACCCUCUAA
For the molecule B15, the binding result with NELF complex WT [4] was “no binding”.

B16: poly(A) (ssRNA)
RNA: AAAAAAAAAAAAAAAAAAAAAAAAAAAAAAAAAAAAAAAAAAAAAAAAAAAAAAAAAAAAAAAAAAAAAAAAAAAAAAAA
On to B16, for which the binding result with NELF complex WT [1] is listed as “no binding”.

B17: poly(GU)40, 80 nt (ssRNA)
RNA: GUGUGUGUGUGUGUGUGUGUGUGUGUGUGUGUGUGUGUGUGUGUGUGUGUGUGUGUGUGUGUGUGUGUGUGUGUGUGUGU
For B17, in the data set with NELF complex WT [7], the binding result is given as “binds”.

B18: poly(G2A), 96 nt (ssRNA)
RNA: GGAGGAGGAGGAGGAGGAGGAGGAGGAGGAGGAGGAGGAGGAGGAGGAGGAGGAGGAGGAGGAGGAGGAGGAGGAGGAGGAGGAGGAGGAGGAGGA
Consider B18, for which, in the data set with NELF complex WT [5], the binding result is “binds”.

B19: Nr4a1-(a) eRNA 1-50 (ssRNA)
RNA: GCGGUGAGAGUGAUUUUGUAACUCUAAAGUUACAGAGGGUUUUGUUGUGU
With B19, in the data set with NELF complex WT [2], the Kd worked out at 9.7 µM.

B20: Arc eRNA 1-200 (structured_RNA)
RNA: AAAACACAGCCGCCAGGGUGGGGGUGGCAGCCUUGAACGCCACCCUCUAACUGGCAUGGGCAUCUGAACUCUCAGCUCUGGGGGUGUCUCAUCGGCCAGCUGGCAGUAGCCCCCCCAACCCCACCCCUGAUGGAGAACUGCUCCUGUAUGAUCCAGCCCAGUGGGCGCACAGGGAGUUGGUAGGUGGGCACUCAGACUGG
As to B20, the binding result with NELF complex WT [6] was “binds”.

B21: Arc eRNA 1-200, 4SU (structured_RNA)
RNA: AAAACACAGCCGCCAGGGUGGGGGUGGCAGCCUUGAACGCCACCCUCUAACUGGCAUGGGCAUCUGAACUCUCAGCUCUGGGGGUGUCUCAUCGGCCAGCUGGCAGUAGCCCCCCCAACCCCACCCCUGAUGGAGAACUGCUCCUGUAUGAUCCAGCCCAGUGGGCGCACAGGGAGUUGGUAGGUGGGCACUCAGACUGG
modifications: 4-thiouridine, 40-80% of U
For B21, the binding result with NELF complex WT [3] is “binds”.
